Experimental data as given in patent US20190241648A1 (STATEN BIOTECHNOLOGY B V, published 2019).
Ends that are not written are not given here.

Legend:
Test in all cases: peptide microarray
[1] = biological target: ApoC3 peptide … S49D (human, cyclic constrained)
From the text: (§1) Amino acids G41 and G46 were highly conserved; substitution of G41 by E, N or Q caused a decrease of spot intensities by ˜70% or higher, whereas exchange of G46 by N was hardly tolerated and resulting in 90% reduced spot intensities. […] Amino acid positions V43, D45 and K51 were also well conserved with a clear preference for the wild type amino acids and a certain tolerance particularly for conservative exchanges by Y, F and I (V43), A, E and K (D45) as well as by R (K51). […] Replacement of V43 by Y, however, increased spot intensity by two fold. Amino acid positions W42 and 48S were poorly conserved or even variable; both positions were susceptible for only a number of amino acid exchanges, and exchange by F, S and T (W42) or by E (S48) even caused a two- to three-fold increase of spot intensity. Amino acid positions A39 and R40 were variable.
(§2) Pre: staining of one of the ApoC3 peptide microarrays was done with the secondary antibody goat anti-human IgG (Fe) DyLight680 (1:5000) and control antibody mouse monoclonal anti-HA (12CA5) DyLight800 (1:2000) to investigate background interactions of the secondary antibody with the antigen-derived peptides that could interfere with the main assays. Subsequent incubation of other ApoC3 peptide microarrays with antibody samples was followed by staining with secondary and control antibodies as well as read-out at scanning intensities of 7/7 (red/green). The additional HA peptides framing the peptide arrays were stained as internal quality control to confirm the assay quality and the peptide microarray integrity.

[2] = biological target: T1, ApoC3 peptide … G41H (human, also: cyclic constrained)
T1 peptide: ARHWVTDGFSSLK
From the text: as §1, §2

[3] = biological target: T2, ApoC3 peptide … G46R (human, thioether (positions not given here); also: cyclic constrained)
T2 peptide: ARGWVTDRFSSLK
From the text: as §1, §2

[4] = biological target: T3, ApoC3 peptide … T44P (human, not fully specified (bridges); also: cyclic constrained)
T3 peptide: ARGWVPDGFSSLK
From the text: as §1, §2

[5] = biological target: T4, wild-type ApoC3 peptide ARGWVTDGFSSLK (SEQ ID NO: 45) (human, not fully specified (bridges); also: cyclic constrained, ring type and positions not given here)
T4 construct: 13 aa cyclic constrained peptide
T4 peptide: ARGWVTDGFSSLK
From the text: as §1, §2

[6] = biological target: T5, ApoC3 peptide … W42S (human, not fully specified (bridges); also: cyclic constrained)
T5 peptide: ARGSVTDGFSSLK
From the text: as §1, §2

[7] = biological target: T6, ApoC3 peptide … S49G (human, cyclic constrained)
T6 peptide: ARGWVTDGFSGLK
From the text: as §1, §2

[8] = biological target: T7, ApoC3 peptide … A39Y (human, not fully specified (bridges); also: cyclic constrained)
T7 peptide: YRGWVTDGFSSLK
From the text: as §1, §2

[9] = biological target: T8, ApoC3 peptide … R40L (human, not fully specified (bridges); also: cyclic constrained)
T8 peptide: ALGWVTDGFSSLK
From the text: as §1, §2

[10] = biological target: T9, ApoC3 peptide … F47E (human, not fully specified (bridges); also: cyclic constrained)
T9 peptide: ARGWVTDGESSLK
From the text: as §1, §2

[11] = biological target: T10, ApoC3 peptide … R40V (human, thioether (positions not given here); also: cyclic constrained)
T10 peptide: AVGWVTDGFSSLK
From the text: as §1, §2

[12] = biological target: T11, ApoC3 peptide … K51Q (human, not fully specified; cyclic constrained)
T11 peptide: ARGWVTDGFSSLQ
From the text: as §1, §2

[13] = biological target: ApoC3 peptide … S49F (human, cyclic constrained)
From the text: as §1, §2

[14] = biological target: T12, ApoC3 peptide … L50Y (human, not fully specified (bridges); also: cyclic constrained)
T12 peptide: ARGWVTDGFSSYK
From the text: as §1, §2

[15] = biological target: T13, ApoC3 peptide … R40Q (human, not fully specified (bridges); also: cyclic constrained)
T13 peptide: AQGWVTDGFSSLK
From the text: as §1, §2

[16] = biological target: T14, ApoC3 peptide … V43S (human, not fully specified (bridges); also: cyclic constrained)
T14 peptide: ARGWSTDGFSSLK
From the text: as §1, §2

[17] = biological target: T15, ApoC3 peptide … S49H (human, cyclic constrained)
T15 peptide: ARGWVTDGFSHLK
From the text: as §1, §2

[18] = biological target: T16, ApoC3 peptide … S49L (human, cyclic constrained)
T16 peptide: ARGWVTDGFSLLK
From the text: as §1, §2

[19] = biological target: T17, ApoC3 peptide … S48R (human, not fully specified (bridges); also: cyclic constrained)
T17 peptide: ARGWVTDGFRSLK
From the text: as §1, §2

[20] = biological target: T18, ApoC3 peptide … L50C (human, not fully specified; cyclic constrained)
T18 peptide: ARGWVTDGFSSCK
From the text: as §1, §2

[21] = biological target: T19, ApoC3 peptide … W42M (human, not fully specified (bridges); also: cyclic constrained)
T19 peptide: ARGMVTDGFSSLK
From the text: as §1, §2

[22] = biological target: T20, ApoC3 peptide … W42E (human, not fully specified (bridges); also: cyclic constrained)
T20 peptide: ARGEVTDGFSSLK
From the text: as §1, §2

[23] = biological target: ApoC3 peptide … S49C (human, cyclic constrained)
From the text: as §1, §2

[24] = biological target: T21, ApoC3 peptide … K51E (human, thioether (positions not given here); also: cyclic constrained)
T21 peptide: ARGWVTDGFSSLE
From the text: as §1, §2

[25] = biological target: T22, ApoC3 peptide … S49N (human, cyclic constrained)
T22 peptide: ARGWVTDGFSNLK
From the text: as §1, §2

[26] = biological target: T23, ApoC3 peptide … V43N (human, not fully specified; cyclic constrained)
T23 peptide: ARGWNTDGFSSLK
From the text: as §1, §2

[27] = biological target: T24, ApoC3 peptide … K51V (human, not fully specified; cyclic constrained)
T24 peptide: ARGWVTDGFSSLV
From the text: as §1, §2

[28] = biological target: T25, ApoC3 peptide … G46E (human, not fully specified (bridges); also: cyclic constrained)
T25 peptide: ARGWVTDEFSSLK
From the text: as §1, §2

[29] = biological target: T26, ApoC3 peptide … K51T (human, not fully specified; cyclic constrained)
T26 peptide: ARGWVTDGFSSLT
From the text: as §1, §2

[30] = biological target: T27, ApoC3 peptide … A39T (human, not fully specified (bridges); also: cyclic constrained)
T27 peptide: TRGWVTDGFSSLK
From the text: as §1, §2

% of binding to wild-type peptide [1]: 0% | % of binding to wild-type peptide [2]: 23.1% | % of binding to wild-type peptide [3]: 0.3% | % of binding to wild-type peptide [4]: 0% | % of binding to wild-type peptide [5]: 100% | % of binding to wild-type peptide [6]: 204% | % of binding to wild-type peptide [7]: 0% | % of binding to wild-type peptide [8]: 40.5% | % of binding to wild-type peptide [9]: 54.2% | % of binding to wild-type peptide [10]: 0% | % of binding to wild-type peptide [11]: 57.5% | % of binding to wild-type peptide [12]: 5.47% | % of binding to wild-type peptide [13]: 0.89% | % of binding to wild-type peptide [14]: 0.38% | % of binding to wild-type peptide [15]: 85.8% | % of binding to wild-type peptide [16]: 1.54% | % of binding to wild-type peptide [17]: 0.56% | % of binding to wild-type peptide [18]: 0% | % of binding to wild-type peptide [19]: 34.5% | % of binding to wild-type peptide [20]: 0% | % of binding to wild-type peptide [21]: 79.4% | % of binding to wild-type peptide [22]: 98.5% | % of binding to wild-type peptide [23]: 0% | % of binding to wild-type peptide [24]: 4.71% | % of binding to wild-type peptide [25]: 0% | % of binding to wild-type peptide [26]: 1.36% | % of binding to wild-type peptide [27]: 3.85% | % of binding to wild-type peptide [28]: 0% | % of binding to wild-type peptide [29]: 17.5% | % of binding to wild-type peptide [30]: 88.7%
B1: anti-ApoC3 antibody 14C7 (antibody, V domains shown)
VH: QVQVQESGPGLVKPSQTLSLTCTVSGGSITTNSYYWSWIRQPPGKGLEWMGAIDYSGDTYYSPSLKSRTSISRDTSKNQFTLQLTSVTPEDTAVYYCVSRIPTGEYWGQGTQVTVSS
VL: QTVVTQEPSLSVSPGGTVTLTCGLNSGSVTSSNYPDWYQQTPGQAPRLLIYNTNSRHSGVPSRFSGSISGNKAALTITGAQPEDEADYYCALYMGSDSVVFGGGTHLTVL
notes: it was detected with goat anti-human IgG (Fc); also called mAb 14C7; llama antibody 14C7
